Data as given in paper PMC7660905.
pKd: −log10 of the molar value.

Legend:
[1] = target: D25 (human monoclonal antibody to site Ø of PreF); test: SPR; conditions: read off a plot; for pKd: parent: est. 54 pM; for ratio to parent: parent: est. 1.0
AM14 = test: SPR; conditions: read off a plot; for pKd: parent: est. 100 pM; for ratio to parent: parent: est. 1.0
[2] = target: D25 IgG (human monoclonal antibody to site Ø of PreF) (human); test: SPR; Biacore T200, single cycle kinetics, IgG captured (100-200 RU) by human Fc binder on a CM5 chip; PreF injected at 0-20 nM, 120 s association, 600 s dissociation; 25 °C, HBS-EP; 1:1 binding model
[3] = target: D25 IgG (human monoclonal antibody to site Ø of PreF) (human); test: SPR; Biacore T200, single cycle kinetics, IgG captured ([…]; 25 °C, HBS-EP; 1:1 binding model

Substance	pKd [1]	ratio to parent [1]	pKd (AM14)	ratio to parent (AM14)	pKd [2]	koff [2] [s⁻¹]	kon [2] [M⁻¹ s⁻¹]	pKd [3]
DS-Cav1 (stabilized prefusion RSV glycoprotein F) (from UniProt P03420) D200N	10.66	0.4	9.92	1.2	–	–	–	–
DS-Cav1 (stabilized prefusion RSV glycoprotein F) (from UniProt P03420) N63A; K65A	10.80	0.3	10.08	–	–	–	–	–
DS-Cav1 (stabilized prefusion RSV glycoprotein F) (from UniProt P03420) D200N; N276S	10.24	1	10.03	0.95	–	–	–	–
DS-Cav1 (stabilized prefusion RSV glycoprotein F) (from UniProt P03420) N63A	10.60	0.45	10.03	0.95	–	–	–	–
DS-Cav1 (stabilized prefusion RSV glycoprotein F) (from UniProt P03420) N276S	10.68	0.4	10.11	0.75	–	–	–	–
monomeric form of PreF	–	–	–	–	10.01	3.75e-05	384000	–
DS-Cav1 (stabilized prefusion RSV glycoprotein F) (from UniProt P03420) K65A	10.38	0.75	10.06	–	–	–	–	–
DS-Cav1 (prefusion-stabilized RSV fusion glycoprotein F), trimeric PreF (from UniProt P03420) (complex)	–	–	–	–	–	–	–	10.27
